These are literature values, as cited in publication PMC8298264, “Function of cofactor Akirin2 in the regulation of gene expression in model human neutrophil-like HL60 cells” (Bioscience Reports, 2021).

Sequences and labels used below:
B1: SIRT1 (protein, UniProt Q96EB6 2-747, looked up)
NAD-dependent protein …: ADEAALALQPGGSPSAAGADREAASSPAGEPLRKRPRRDGPGLERSPGEPGGAAPEREVPAAARGCPGAAAAALWREAEAEAAAAGGEQEAQATAAAGEGDNGPGLQGPSREPPLADNLYDEDDDDEGEEEEEAAAAAIGYRDNLLFGDEIITNGFHSCESDEEDRASHASSSDWTPRPRIGPYTFVQQHLMIGTDPRTILKDLLPETIPPPELDDMTLWQIVINILSEPPKRKKRKDINTIEDAVKLLQECKKIIVLTGAGVSVSCGIPDFRSRDGIYARLAVDFPDLPDPQAMFDIEYFRKDPRPFFKFAKEIYPGQFQPSLCHKFIALSDKEGKLLRNYTQNIDTLEQVAGIQRIIQCHGSFATASCLICKYKVDCEAVRGDIFNQVVPRCPRCPADEPLAIMKPEIVFFGENLPEQFHRAMKYDKDEVDLLIVIGSSLKVRPVALIPSSIPHEVPQILINREPLPHLHFDVELLGDCDVIINELCHRLGGEYAKLCCNPVKLSEITEKPPRTQKELAYLSELPPTPLHVSEDSSSPERTSPPDSSVIVTLLDQAAKSNDDLDVSESKGCMEEKPQEVQTSRNVESIAEQMENPDLKNVGSSTGEKNERTSVAGTVRKCWPNRVAKEQISRRLDGNQYLFLPPNRYIFHGAEVYSDSEDDVLSSSSCGSNSDSGTCQSPSLEEPMEDESEIEEFYNGLEDEPDVPERAGGAGFGTDGDDQEAINEAISVKQEVTDMNYPSNKS
B2: SPG21 (protein, UniProt Q9NZD8 1-308, looked up)
Maspardin: MGEIKVSPDYNWFRGTVPLKKIIVDDDDSKIWSLYDAGPRSIRCPLIFLPPVSGTADVFFRQILALTGWGYRVIALQYPVYWDHLEFCDGFRKLLDHLQLDKVHLFGASLGGFLAQKFAEYTHKSPRVHSLILCNSFSDTSIFNQTWTANSFWLMPAFMLKKIVLGNFSSGPVDPMMADAIDFMVDRLESLGQSELASRLTLNCQNSYVEPHKIRDIPVTIMDVFDQSALSTEAKEEMYKLYPNARRAHLKTGGNFPYLCRSAEVNLYVQIHLLQFHGTKYAAIDPSMVSAEELEVQKGSLGISQEEQ
B3: RNF123 (protein, UniProt Q5XPI4 2-1314, looked up)
E3 ubiquitin-protein ligase …: ASKGAGMSFSRKSYRLTSDAEKSRVTGIVQEKLLNDYLNRIFSSSEHAPPAATSRKPLNFQNLPEHLDQLLQVDNEEEESQGQVEGRLGPSTVVLDHTGGFEGLLLVDDDLLGVIGHSNFGTIRSTTCVYKGKWLYEVLISSQGLMQIGWCTISCRFNQEEGVGDTHNSYAYDGNRVRKWNVTTTNYGKAWAAGDIVSCLIDLDDGTLSFCLNGVSLGTAFENLSRGLGMAYFPAISLSFKESVAFNFGSRPLRYPVAGYRPLQDPPSADLVRAQRLLGCFRAVLSVELDPVEGRLLDKESSKWRLRGQPTVLLTLAHIFHHFAPLLRKVYLVEAVLMSFLLGIVEKGTPTQAQSVVHQVLDLLWLFMEDYEVQDCLKQLMMSLLRLYRFSPIVPDLGLQIHYLRLTIAILRHEKSRKFLLSNVLFDVLRSVVFFYIKSPLRVEEAGLQELIPTTWWPHCSSREGKESTEMKEETAEERLRRRAYERGCQRLRKRIEVVEELQVQILKLLLDNKDDNGGEASRYIFLTKFRKFLQENASGRGNMPMLCPPEYMVCFLHRLISALRYYWDEYKASNPHASFSEEAYIPPQVFYNGKVDYFDLQRLGGLLSHLRKTLKDDLASKANIVIDPLELQSTAMDDLDEDEEPAPAMAQRPMQALAVGGPLPLPRPGWLSSPTLGRANRFLSTAAVSLMTPRRPLSTSEKVKVRTLSVEQRTREDIEGSHWNEGLLLGRPPEEPEQPLTENSLLEVLDGAVMMYNLSVHQQLGKMVGVSDDVNEYAMALRDTEDKLRRCPKRRKDILAELTKSQKVFSEKLDHLSRRLAWVHATVYSQEKMLDIYWLLRVCLRTIEHGDRTGSLFAFMPEFYLSVAINSYSALKNYFGPVHSMEELPGYEETLTRLAAILAKHFADARIVGTDIRDSLMQALASYVCYPHSLRAVERIPEEQRIAMVRNLLAPYEQRPWAQTNWILVRLWRGCGFGYRYTRLPHLLKTKLEDANLPSLQKPCPSTLLQQHMADLLQQGPDVAPSFLNSVLNQLNWAFSEFIGMIQEIQQAAERLERNFVDSRQLKVCATCFDLSVSLLRVLEMTITLVPEIFLDWTRPTSEMLLRRLAQLLNQVLNRVTAERNLFDRVVTLRLPGLESVDHYPILVAVTGILVQLLVRGPASEREQATSVLLADPCFQLRSICYLLGQPEPPAPGTALPAPDRKRFSLQSYADYISADELAQVEQMLAHLTSASAQAAAASLPTSEEDLCPICYAHPISAVFQPCGHKSCKACINQHLMNNKDCFFCKTTIVSVEDWEKGANTSTTSSAA
B4: TOMM34 (protein, UniProt Q15785 1-309, looked up)
Mitochondrial import receptor …: MAPKFPDSVEELRAAGNESFRNGQYAEASALYGRALRVLQAQGSSDPEEESVLYSNRAACHLKDGNCRDCIKDCTSALALVPFSIKPLLRRASAYEALEKYPMAYVDYKTVLQIDDNVTSAVEGINRMTRALMDSLGPEWRLKLPSIPLVPVSAQKRWNSLPSENHKEMAKSKSKETTATKNRVPSAGDVEKARVLKEEGNELVKKGNHKKAIEKYSESLLCSNLESATYSNRALCYLVLKQYTEAVKDCTEALKLDGKNVKAFYRRAQAHKALKDYKSSFADISNLLQIEPRNGPAQKLRQEVKQNLH
B5: SORBS3 (protein, UniProt O60504 1-671, looked up)
Vinexin: MQGPPRSLRAGLSLDDFIPGHLQSHIGSSSRGTRVPVIRNGGSNTLNFQFHDPAPRTVCNGGYTPRRDASQHPDPAWYQTWPGPGSKPSASTKIPASQHTQNWSATWTKDSKRRDKRWVKYEGIGPVDESGMPIAPRSSVDRPRDWYRRMFQQIHRKMPDLQLDWTFEEPPRDPRHLGAQQRPAHRPGPATSSSGRSWDHSEELPRSTFNYRPGAFSTVLQPSNQVLRRREKVDNVWTEESWNQFLQELETGQRPKKPLVDDPGEKPSQPIEVLLERELAELSAELDKDLRAIETRLPSPKSSPAPRRAPEQRPPAGPASAWSSSYPHAPYLGSARSLSPHKMADGGSPFLGRRDFVYPSSTRDPSASNGGGSPARREEKKRKAARLKFDFQAQSPKELTLQKGDIVYIHKEVDKNWLEGEHHGRLGIFPANYVEVLPADEIPKPIKPPTYQVLEYGEAVAQYTFKGDLEVELSFRKGEHICLIRKVNENWYEGRITGTGRQGIFPASYVQVSREPRLRLCDDGPQLPTSPRLTAAARSARHPSSPSALRSPADPIDLGGQTSPRRTGFSFPTQEPRPQTQNLGTPGPALSHSRGPSHPLDLGTSSPNTSQIHWTPYRAMYQYRPQNEDELELREGDRVDVMQQCDDGWFVGVSRRTQKFGTFPGNYVAPV
B6: RNF181 (protein, UniProt Q9P0P0 1-153, looked up)
E3 ubiquitin-protein ligase …: MASYFDEHDCEPSDPEQETRTNMLLELARSLFNRMDFEDLGLVVDWDHHLPPPAAKTVVENLPRTVIRGSQAELKCPVCLLEFEEEETAIEMPCHHLFHSSCILPWLSKTNSCPLCRYELPTDDDTYEEHRRDKARKQQQQHRLENLHGAMYT
B7: TNIP2 (protein, UniProt Q8NFZ5 1-429, looked up)
TNFAIP3-interacting protein 2: MSRDPGSGGWEEAPRAAAALCTLYHEAGQRLRRLQDQLAARDALIARLRARLAALEGDAAPSLVDALLEQVARFREQLRRQEGGAAEAQMRQEIERLTERLEEKEREMQQLLSQPQHEREKEVVLLRRSMAEGERARAASDVLCRSLANETHQLRRTLTATAHMCQHLAKCLDERQHAQRNVGERSPDQSEHTDGHTSVQSVIEKLQEENRLLKQKVTHVEDLNAKWQRYNASRDEYVRGLHAQLRGLQIPHEPELMRKEISRLNRQLEEKINDCAEVKQELAASRTARDAALERVQMLEQQILAYKDDFMSERADRERAQSRIQELEEKVASLLHQVSWRQDSREPDAGRIHAGSKTAKYLAADALELMVPGGWRPGTGSQQPEPPAEGGHPGAAQRGQGDLQCPHCLQCFSDEQGEELLRHVAECCQ

The series concerns AKR2. Further details: key: A: Very high confidence in the interaction; B: High confidence in the interaction; D: Moderate confidence in the interaction. Conditions: AKR2-interacting proteins (IPs), physical interactome; ref https://doi.org/10.3390/vaccines8010077; cited from earlier work. From the text:
Supplement BSR-2021-1120_supp1.zip/BSR-2021-1120_suppST4.xlsx, sheet "BPs related to AKR2-IPs" | column: Predicted Biological Score (PBS)
Regarding B1, the “Predicted Biological Score (PBS)” value is on record as “D”.
For B2, the “Predicted Biological Score (PBS)” value is on record as “A”.
Take B3: the “Predicted Biological Score (PBS)” value is listed as “A”.
As for B4, the “Predicted Biological Score (PBS)” value is “A”.
On to B5, for which the “Predicted Biological Score (PBS)” value is recorded as “A”.
Take B6: the “Predicted Biological Score (PBS)” value is given as “A”.
Regarding B7, the “Predicted Biological Score (PBS)” value was “A”.
